Experimental data reported in patent US20230139516.

Target: 6×His-c-Myc, P01106
Sequence (P01106 16-454): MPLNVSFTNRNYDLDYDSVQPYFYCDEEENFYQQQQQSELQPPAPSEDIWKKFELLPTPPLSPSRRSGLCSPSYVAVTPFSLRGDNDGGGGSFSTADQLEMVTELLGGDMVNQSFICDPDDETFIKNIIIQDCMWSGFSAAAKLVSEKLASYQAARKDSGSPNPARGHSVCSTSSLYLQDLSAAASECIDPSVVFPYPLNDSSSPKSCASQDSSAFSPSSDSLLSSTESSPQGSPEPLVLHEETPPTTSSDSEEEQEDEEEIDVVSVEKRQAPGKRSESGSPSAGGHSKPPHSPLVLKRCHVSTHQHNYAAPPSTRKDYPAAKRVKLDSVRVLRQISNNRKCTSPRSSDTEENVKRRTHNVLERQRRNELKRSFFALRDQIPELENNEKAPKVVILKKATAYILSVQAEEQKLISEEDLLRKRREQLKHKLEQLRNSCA

B1: GST-MKK7 (protein)
chain: MAASSLEQKLSRLEAKLKQENREARRRIDLNLDISPQRPRPTLQLPLANDGGSRSPSSESSPQHPTPPARPRHMLGLPSTLFTPRSMESIEIDQKLQEIMKQTGYLTIGGQRYQAEINDLENLGEMGSGTCGQVWKMRFRKTGHVIAVKQMRRSGNKEENKRILMDLDVVLKSHDCPYIVQCFGTFITNTDVFIAMELMGTCAEKLKKRMQGPIPERILGKMTVAIVKALYYLKEKHGVIHRDVKPSNILLDERGQIKLCDFGISGRLVDSKAKTRSAGCAAYMAPERIDPPDPTKPDYDIRADVWSLGISLVELATGQFPYKNCKTDFEVLTKVLQEEPPLLPGHMGFSGDFQSFVKDCLTKDHRKRPKYNKLLEHSFIKRYETLEVDVASWFKDVMAKTESPRTSGVLSQPHLPFFR
  in vitro kinase assay, immunoblot for p-c-Myc-Ser62: recombinant MKK7 could directly phosphorylate c-Myc-Ser62
